According to patent publication US20180303937A1, “A COMPOSITION FOR CONTROLLED RELEASE OF A BIOMOLECULE, METHOD OF PREPARATION AND USES THEREOF” (CENTRO DE NEUROCIENCIAS E BIOLOGIA CELULAR, priority 2015, published 2018):

Tested on: SC-1 mouse fibroblasts
Test: Cytotoxicity of BSA-dsDNA51.7-AuNR (Celltiter-Glo ATP assay)
Type: cell-based
Details: 50 μg/mL NR; irradiation 1.25 to 2 W/cm^2, 2 min
Method: FIG. 7: Cytotoxicity of BSA-dsDNA51.7-AuNR. Mouse fibroblasts were seeded on a 96 well plate (4×10^3 cells/well), left to adhere for 24 h and then incubated with different concentrations of BSA-dsDNA51.7-AuNR for 4 h. After incubation, the cells were washed with medium to remove non-internalized AuNR. Some of the conditions were irradiated for 2 min with 1.25 or 2 W/cm^2. Then, the plate was left in the incubator for 24 h. The ATP production was measured by a Celltiter-Glo Luminescent Cell Viability Assay (Promega).
Cytotoxicity of BSA-dsDNA51.7-AuNR. SC-1 mouse fibroblasts were grown in DMEM supplemented with 10% fetal bovine serum (FBS), at 37° C. in a fully humidified air containing 5% CO2. To assess the cytotoxicity of gold NRs, fibroblasts were seeded on a 96 well plate (4×10^3 cells/well), left to adhere for 24 h and then incubated with BSA-dsDNA51.7-AuNR for 4 h. After incubation, the cells were washed with medium to remove non-internalized NR. In some conditions, after incubation with BSA-dsDNA51.7-AuNR, the cells were washed and irradiated with a fiber coupled Roithner laser (785 nm). Each well was placed below the end of the fibre and irradiated with a power density of 1.25 and 2 W/cm^2 for 2 min. Then cells were left in the incubator for 24 h and the ATP production was measured by a Celltiter-Glo Luminescent Cell Viability Assay (Promega).

## BSA-dsDNA51.7-AuNR: gold nanorods carrying BSA via dsDNA with melting temperature 51.7° C.
  cytotoxic effects (ATP production): do not show significant cytotoxic effects
